Data taken from the supplement of paper PMC9732359.
± gives the uncertainty stated by the source.

Experiment: protein stability index of a GFP-peptide fusion (yeast GPS) (PSI 1-4); higher = more stable; sorted into four equal gates, so the index is relative within each strain
In short: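 Tiled 17-residue peptides from yeast proteins were fused downstream of GFP on a plasmid that also expresses Cherry, and the pooled library was carried in yeast. Mid-log cultures grown in leucine-free medium were sorted into four equal gates by GFP/Cherry fluorescence ratio. Plasmids from each gate were PCR-amplified and Illumina-sequenced, and reads were assigned to strains by barcodes. Each peptide's protein stability index is the sum, over gates, of the gate's read frequency multiplied by its gate number.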

ASFGKNLQIRQLFNWCL [DSN1]
protein stability index (doa10∆): 1.2 ± 0.064 | protein stability index (pdr5∆): 1.44 ± 0.051 | protein stability index (san1∆): 1.29 ± 0.15 | protein stability index (ubr1∆): 2.33 ± 0.12

FALIDYFYDLDVLKDGE [BRN1]
protein stability index (doa10∆): 2.86 ± 0.049 | protein stability index (pdr5∆): 2.76 ± 0.057 | protein stability index (san1∆): 3.04 ± 0.061 | protein stability index (ubr1∆): 2.79 ± 0.049

LHNFESVAPTKQREIVK [NUT1]
protein stability index (doa10∆): 2.71 ± 0.084 | protein stability index (pdr5∆): 2.55 ± 0.065 | protein stability index (san1∆): 2.7 ± 0.053 | protein stability index (ubr1∆): 2.6 ± 0.044

HPSIYTQVFNILLQHKE [POP1]
protein stability index (doa10∆): 2.25 ± 0.083 | protein stability index (pdr5∆): 2.6 ± 0.074 | protein stability index (san1∆): 2.41 ± 0.08 | protein stability index (ubr1∆): 2.39 ± 0.044

TKFNHNKEKSNSPTSFF [YOR098C/NUP1]
protein stability index (doa10∆): 2.78 ± 0.069 | protein stability index (pdr5∆): 2.85 ± 0.066 | protein stability index (san1∆): 2.66 ± 0.048 | protein stability index (ubr1∆): 2.53 ± 0.051

SGCDSTKPSLRKASCIW [ECM29]
protein stability index (doa10∆): 2.86 ± 0.082 | protein stability index (pdr5∆): 3.11 ± 0.075 | protein stability index (san1∆): 2.63 ± 0.076 | protein stability index (ubr1∆): 2.98 ± 0.066

DSEKHIDFAPTSPFGGA [RPS9A]
protein stability index (doa10∆): 2.6 ± 0.06 | protein stability index (pdr5∆): 2.65 ± 0.06 | protein stability index (san1∆): 2.69 ± 0.068 | protein stability index (ubr1∆): 2.68 ± 0.041

NSQVFGVARIYASFNDT [RPS14B]
protein stability index (doa10∆): 2.54 ± 0.08 | protein stability index (pdr5∆): 2.45 ± 0.065 | protein stability index (san1∆): 2.5 ± 0.048 | protein stability index (ubr1∆): 2.67 ± 0.079

LIRNVGTNTYRLGEWSK [POP1]
protein stability index (doa10∆): 1.9 ± 0.28 | protein stability index (pdr5∆): 1.29 ± 0.22 | protein stability index (san1∆): 1.12 ± 0.28

HQQQLQQPHYIQRTRER [DSN1]
protein stability index (doa10∆): 2.95 ± 0.055 | protein stability index (pdr5∆): 3.08 ± 0.042 | protein stability index (san1∆): 2.92 ± 0.037 | protein stability index (ubr1∆): 2.84 ± 0.042

DQEKKYGMSITETFEKP [RPB2]
protein stability index (doa10∆): 2.85 ± 0.11 | protein stability index (pdr5∆): 3.4 ± 0.18 | protein stability index (san1∆): 3.15 ± 0.096 | protein stability index (ubr1∆): 3.5 ± 0.1

RLILLLNHRNKNQHRAA [RMP1]
protein stability index (doa10∆): 1.44 ± 0.09 | protein stability index (pdr5∆): 1.51 ± 0.079 | protein stability index (san1∆): 1.34 ± 0.12 | protein stability index (ubr1∆): 2.13 ± 0.089

SVVSMSNDVLKPETPKG [SIR2]
protein stability index (doa10∆): 3.01 ± 0.073 | protein stability index (pdr5∆): 3.51 ± 0.11 | protein stability index (san1∆): 3.25 ± 0.062 | protein stability index (ubr1∆): 2.96 ± 0.052

KVPQQAAGKRISHIEKR [SMC1]
protein stability index (doa10∆): 3.04 ± 0.11 | protein stability index (pdr5∆): 3.14 ± 0.12 | protein stability index (san1∆): 2.97 ± 0.095 | protein stability index (ubr1∆): 3.15 ± 0.12

KHEEIDTKNLYVIKALQ [RPS10A]
protein stability index (doa10∆): 1.6 ± 0.085 | protein stability index (pdr5∆): 2.02 ± 0.078 | protein stability index (san1∆): 1.64 ± 0.12 | protein stability index (ubr1∆): 1.46 ± 0.077

VVRRRFRGNISQPKIGY [RPL32]
protein stability index (doa10∆): 2.85 ± 0.096 | protein stability index (pdr5∆): 2.88 ± 0.06 | protein stability index (san1∆): 2.9 ± 0.067 | protein stability index (ubr1∆): 2.92 ± 0.05

YSSAPLRTVKEVQFGLF [RPO21]
protein stability index (pdr5∆): 2.27 ± 0.2

NSINKTTVPFKESDDPS [POP1]
protein stability index (doa10∆): 2.5 ± 0.067 | protein stability index (pdr5∆): 2.93 ± 0.06 | protein stability index (san1∆): 2.71 ± 0.072 | protein stability index (ubr1∆): 2.36 ± 0.065

DKTLRLWDVATGETYQR [ASC1]
protein stability index (doa10∆): 3 ± 0.23 | protein stability index (pdr5∆): 3.36 ± 0.16 | protein stability index (san1∆): 2.18 ± 0.19 | protein stability index (ubr1∆): 3.42 ± 0.091

KRLTEDERIEKELNTER [CDC53]
protein stability index (pdr5∆): 2.89 ± 0.16 | protein stability index (san1∆): 2.33 ± 0.1 | protein stability index (ubr1∆): 2.31 ± 0.12

GNISSSTVKKKDIVNIS [REC8]
protein stability index (doa10∆): 3.03 ± 0.063 | protein stability index (pdr5∆): 3.07 ± 0.056 | protein stability index (san1∆): 2.88 ± 0.044 | protein stability index (ubr1∆): 3.02 ± 0.05

LIYVNPFMLQWGIPLIK [FAS1]
protein stability index (doa10∆): 1.45 ± 0.082 | protein stability index (pdr5∆): 1.4 ± 0.099 | protein stability index (san1∆): 1.13 ± 0.14 | protein stability index (ubr1∆): 1.65 ± 0.064

RQSSVGSLNATNFSPTP [SNF2]
protein stability index (doa10∆): 2.75 ± 0.049 | protein stability index (pdr5∆): 2.98 ± 0.048 | protein stability index (san1∆): 2.54 ± 0.044 | protein stability index (ubr1∆): 2.96 ± 0.051

MQLEEELMKLDGTEYVL [MED6]
protein stability index (doa10∆): 3.26 ± 0.15 | protein stability index (pdr5∆): 3.4 ± 0.11 | protein stability index (san1∆): 3.21 ± 0.091 | protein stability index (ubr1∆): 3.26 ± 0.076

ILDNINHNGSALLIEVF [ITC1]
protein stability index (doa10∆): 1.13 ± 0.096 | protein stability index (pdr5∆): 1.22 ± 0.076 | protein stability index (san1∆): 1.14 ± 0.13 | protein stability index (ubr1∆): 1.22 ± 0.07

GLTSRLQRQQRKSKLNL [POP4]
protein stability index (doa10∆): 2.65 ± 0.12 | protein stability index (pdr5∆): 3.34 ± 0.18 | protein stability index (san1∆): 3.09 ± 0.063 | protein stability index (ubr1∆): 3.67 ± 0.27

QNENLPSDKSDSMVDKE [SSN2]
protein stability index (doa10∆): 3.07 ± 0.13 | protein stability index (pdr5∆): 2.64 ± 0.096 | protein stability index (san1∆): 2.73 ± 0.091 | protein stability index (ubr1∆): 2.57 ± 0.077

LKRLAWQYIVIDEAHRI [ISW2]
protein stability index (doa10∆): 1.77 ± 0.077 | protein stability index (pdr5∆): 1.78 ± 0.1 | protein stability index (san1∆): 2.45 ± 0.077 | protein stability index (ubr1∆): 1.13 ± 0.09

LYRSIESGEFDFDLFKE [YJL039C/NUP192]
protein stability index (doa10∆): 3.1 ± 0.12 | protein stability index (pdr5∆): 2.93 ± 0.1 | protein stability index (san1∆): 3.01 ± 0.069 | protein stability index (ubr1∆): 2.91 ± 0.11

TELLNIYDSEDPQQVFD [RPN3]
protein stability index (doa10∆): 2.88 ± 0.1 | protein stability index (pdr5∆): 3.13 ± 0.078 | protein stability index (san1∆): 3.15 ± 0.084 | protein stability index (ubr1∆): 2.87 ± 0.058

QQQGQIPQSQQVPQVRS [SNF5]
protein stability index (doa10∆): 2.37 ± 0.036 | protein stability index (pdr5∆): 2.73 ± 0.042 | protein stability index (san1∆): 2.45 ± 0.063 | protein stability index (ubr1∆): 2.36 ± 0.048

GKAATAKETHTKPSETP [YOR098C/NUP1]
protein stability index (doa10∆): 2.57 ± 0.098 | protein stability index (pdr5∆): 2.84 ± 0.094 | protein stability index (san1∆): 2.76 ± 0.077 | protein stability index (ubr1∆): 2.37 ± 0.091

CLTKFQDEEQTEHLTEL [YCG1]
protein stability index (doa10∆): 3.33 ± 0.13 | protein stability index (pdr5∆): 3 ± 0.15 | protein stability index (san1∆): 3.46 ± 0.075 | protein stability index (ubr1∆): 2.85 ± 0.11

KPVMEVTSSFFYRGNYT [FAS1]
protein stability index (doa10∆): 2.21 ± 0.065 | protein stability index (pdr5∆): 2.11 ± 0.065 | protein stability index (san1∆): 1.91 ± 0.12 | protein stability index (ubr1∆): 2.1 ± 0.081

RSDGMGNVLLNATVVDS [YLR335W/NUP2]
protein stability index (doa10∆): 3.44 ± 0.15 | protein stability index (pdr5∆): 3.15 ± 0.099 | protein stability index (san1∆): 3.29 ± 0.099 | protein stability index (ubr1∆): 3.15 ± 0.093

DKVDDYTPEEVDKIERE [SMC4]
protein stability index (doa10∆): 1.17 ± 0.11 | protein stability index (pdr5∆): 1.45 ± 0.12 | protein stability index (san1∆): 1.32 ± 0.22 | protein stability index (ubr1∆): 1.28 ± 0.11

SVGTDPMPIITFLSEWG [RPB2]
protein stability index (doa10∆): 2.7 ± 0.1 | protein stability index (pdr5∆): 1.99 ± 0.057 | protein stability index (san1∆): 1.57 ± 0.094 | protein stability index (ubr1∆): 2.22 ± 0.062

LGVTYSSPTLATGFGAH [PRE4]
protein stability index (doa10∆): 2.41 ± 0.078 | protein stability index (pdr5∆): 2.29 ± 0.12 | protein stability index (san1∆): 2.48 ± 0.087 | protein stability index (ubr1∆): 1.62 ± 0.12

EETYEEKPQFKDGETTD [RPO26]
protein stability index (doa10∆): 3.24 ± 0.23 | protein stability index (pdr5∆): 2.98 ± 0.28 | protein stability index (san1∆): 3.47 ± 0.19 | protein stability index (ubr1∆): 3.34 ± 0.14

KYIALQVIVDIFSVHGN [YCG1]
protein stability index (doa10∆): 1.26 ± 0.081 | protein stability index (pdr5∆): 1.36 ± 0.14 | protein stability index (san1∆): 1.14 ± 0.14 | protein stability index (ubr1∆): 1.75 ± 0.16

SRTFDKYSKLVDNVTLE [SRP72]
protein stability index (doa10∆): 3.37 ± 0.12 | protein stability index (pdr5∆): 3.36 ± 0.1 | protein stability index (san1∆): 3.44 ± 0.094 | protein stability index (ubr1∆): 3.3 ± 0.1

YGEAPTSPGFGVSSPGF [RPO21]
protein stability index (doa10∆): 3.06 ± 0.14 | protein stability index (pdr5∆): 3.45 ± 0.14 | protein stability index (san1∆): 2.93 ± 0.17 | protein stability index (ubr1∆): 3.17 ± 0.054

DQNNKKMVGLRGFNNQI [SNF2]
protein stability index (doa10∆): 3.35 ± 0.065 | protein stability index (pdr5∆): 3.22 ± 0.072 | protein stability index (san1∆): 3.2 ± 0.072 | protein stability index (ubr1∆): 3.37 ± 0.044

DPKSPTKRSIAIVFEEI [YMR129W/POM152]
protein stability index (doa10∆): 2.73 ± 0.074 | protein stability index (pdr5∆): 2.97 ± 0.087 | protein stability index (san1∆): 2.77 ± 0.055 | protein stability index (ubr1∆): 2.72 ± 0.078

DIIMNPHGFPSRMTVGK [RET1]
protein stability index (doa10∆): 2.67 ± 0.056 | protein stability index (pdr5∆): 2.83 ± 0.076 | protein stability index (san1∆): 2.79 ± 0.049 | protein stability index (ubr1∆): 2.71 ± 0.065

NILTTHLSHPGTNKDMI [ECM29]
protein stability index (doa10∆): 2.61 ± 0.073 | protein stability index (pdr5∆): 2.2 ± 0.067 | protein stability index (san1∆): 2.15 ± 0.09 | protein stability index (ubr1∆): 2.05 ± 0.044

SDNVSFEIQGVPPMKLA [YMR129W/POM152]
protein stability index (doa10∆): 2.8 ± 0.11 | protein stability index (pdr5∆): 3.18 ± 0.083 | protein stability index (san1∆): 3.05 ± 0.062 | protein stability index (ubr1∆): 2.86 ± 0.088

LLYLRLKNIYVSADDFV [PRP8]
protein stability index (doa10∆): 1.26 ± 0.052 | protein stability index (pdr5∆): 1.39 ± 0.054 | protein stability index (san1∆): 1.27 ± 0.097 | protein stability index (ubr1∆): 1.16 ± 0.046

PNPNNMKTVQSPMGAQP [GAL11]
protein stability index (doa10∆): 3.21 ± 0.13 | protein stability index (pdr5∆): 2.96 ± 0.095 | protein stability index (san1∆): 2.96 ± 0.12 | protein stability index (ubr1∆): 2.94 ± 0.075

EGARMVRELFEMARTKK [RPT1]
protein stability index (doa10∆): 1.78 ± 0.12 | protein stability index (pdr5∆): 1.7 ± 0.15

FHFRAPSRIFYKALRGM [RPL16A]
protein stability index (doa10∆): 1.97 ± 0.24 | protein stability index (pdr5∆): 2.4 ± 0.18 | protein stability index (san1∆): 2.27 ± 0.14 | protein stability index (ubr1∆): 2.43 ± 0.14

LDFIGRRGTALGIKKEK [RPB2]
protein stability index (doa10∆): 1.68 ± 0.075 | protein stability index (pdr5∆): 2.03 ± 0.097 | protein stability index (san1∆): 2.27 ± 0.059 | protein stability index (ubr1∆): 2.07 ± 0.08

EVKLKASLKKMEETEQK [SMC3]
protein stability index (pdr5∆): 3.16 ± 0.15 | protein stability index (san1∆): 3.2 ± 0.17 | protein stability index (ubr1∆): 3.53 ± 0.25
